Assay results published in patent publication EP4674438A1, “ANTIBODY-DRUG CONJUGATE CONTAINING ANTI-CD138 ANTIBODY” (priority 2023, dated 2024).

T1: human CD138 protein (human, UniProt P18827 23-310)
T1 sequence: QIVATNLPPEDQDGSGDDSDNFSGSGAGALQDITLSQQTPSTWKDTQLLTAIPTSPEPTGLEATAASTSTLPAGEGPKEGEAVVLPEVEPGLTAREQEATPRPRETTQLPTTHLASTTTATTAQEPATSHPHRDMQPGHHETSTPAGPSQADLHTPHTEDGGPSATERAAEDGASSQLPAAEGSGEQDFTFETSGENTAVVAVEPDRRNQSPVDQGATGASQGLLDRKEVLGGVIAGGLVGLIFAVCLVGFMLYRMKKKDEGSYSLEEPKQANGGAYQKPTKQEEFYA

B1: Antibody-drug conjugate 3 (ADC3) (antibody, V domains shown)
VH: QVQLQQSGSELMMPGASVKISCKATGYTFSNYWIEWVKQRPGHGLEWIGEILPGTGRTIYNEKFKGKATFTADISSNTVQMQLSSLTSEDSAVYYCARRDYYGNFYYAMDYWGQGTLVTVSS
VL: DIQMTQSTSSLSASLGDRVTISCSASQGINNYLNWYQQKPDGTVELLIYYTSTLQSGVPSRFSGSGSGTDYSLTISNLEPEDIGTYYCQQYSKLPRTFGGGTKLEIKR
modifications: MC-VC-PAB-MMAE on cysteine sulfhydryls after TCEP reduction of hinge disulfide bonds; positions not given; DAR 7.1
B2: Antibody 1 (antibody, V domains shown)
VH: QVQLQQSGSELMMPGASVKISCKATGYTFSNYWIEWVKQRPGHGLEWIGEILPGTGRTIYNEKFKGKATFTADISSNTVQMQLSSLTSEDSAVYYCARRDYYGNFYYAMDYWGQGTLVTVSS
VL: DIQMTQSTSSLSASLGDRVTISCSASQGINNYLNWYQQKPDGTVELLIYYTSTLQSGVPSRFSGSGSGTDYSLTISNLEPEDIGTYYCQQYSKLPRTFGGGTKLEIKR
notes: expressed in HEK293 cells; Same light chain as Antibody 2 (nBT062); also called anti-CD138 antibody
B3: Antibody-drug conjugate 4 (ADC4) (antibody, human IgG1, kappa, V domains shown)
VH: QVQLQQSGSELMMPGASVKISCKATGYTFSNYWIEWVKQRPGHGLEWIGEILPGTGRTIYNEKFKGKATFTADISSNTVQMQLSSLTSEDSAVYYCARRDYYGNFYYAMDYWGQGTLVTVSS
VL: DIQMTQSTSSLSASLGDRVTISCSASQGINNYLNWYQQKPDGTVELLIYYTSTLQSGVPSRFSGSGSGTDYSLTISNLEPEDIGTYYCQQYSKLPRTFGGGTKLEIKR
modifications: MC-VC-PAB-MMAF on cysteine sulfhydryls after TCEP reduction of hinge disulfide bonds; positions not given; DAR 2.2
B4: Antibody-drug conjugate 10 (ADC10) (antibody, human IgG1, kappa, L234A L235A, V domains shown)
VH: QVQLVQSGAEVKKPGSSVKVSCKASGYTFSNYWIEWVRQAPGQGLEWIGEILPGTGRTIYNEKFKGRATFTADESTSTAYMELSSLRSEDTAVYYCARRDYYGNFYYAMDYWGQGTLVTVSS
VL: DIQMTQSPSSLSASVGDRVTITCSASQGINNYLNWYQQKPGKAPKLLIYYTSTLQSGVPSRFSGSGSGTDYTLTISSLQPEDFATYYCQQYSKLPRTFGGGTKVEIKR
modifications: MC-VC-PAB-MMAE on cysteine sulfhydryls after TCEP reduction of hinge disulfide bonds; positions not given; DAR 7.8
B5: Antibody 5 (antibody, human IgG1, kappa, L234A L235A, V domains shown)
VH: QVQLVQSGAEVKKPGSSVKVSCKASGYTFSNYWIEWVRQAPGQGLEWIGEILPGTGRTIYNEKFKGRATFTADESTSTAYMELSSLRSEDTAVYYCARRDYYGNFYYAMDYWGQGTLVTVSS
VL: DIQMTQSPSSLSASVGDRVTITCSASQGINNYLNWYQQKPGKAPKLLIYYTSTLQSGVPSRFSGSGSGTDYTLTISSLQPEDFATYYCQQYSKLPRTFGGGTKVEIKR
notes: Humanized; also called anti-CD138 antibody

What was measured:
human CD138 protein [1] = target: T1, human CD138 protein; experiment: cell-based or functional assay
human CD138 protein [2] = target: T1, human CD138 protein; experiment: flow cytometry on AsPC-1 cells, 0.001 to 100 ug/ml, anti-human IgG Fc-APC
human CD138 protein [3] = target: T1, human CD138 protein; experiment: flow cytometry on AsPC-1 cells (legend of Figure 1)

| Binder | IC50 (ng/ml), cytotoxicity, Capan-1 (CD138-positive), CellTiter-Glo 2.0 (human CD138 protein [1]) | other results |
| --- | --- | --- |
| B1 | 13 ng/mL | – |
| B2 | – | binding result (human CD138 protein [2]): binds |
| B3 | 165 ng/mL | – |
| B4 | 29 ng/mL | – |
| B5 | – | binding result (human CD138 protein [3]): binds |
